According to patent US10781262B2, “Combination therapy of T cell activating bispecific antigen binding molecules and PD-1 axis binding antagonists” (Hoffmann-La Roche Inc., priority 2014, dated 2020):
Where two headings read alike, the source gives them in different places.

Tests used:
[1] = system: HEK cells transiently transfected with cyno FolR1; assay: Flow cytometry cross-reactivity on transfected HEK cells; format: binding, cynomolgus; details: IgG
Description: FIGS. 4A-B depict graphs summarizing cross-reactivity of FolR1 binders to cyFoLR1. Cross-reactivity of the FolR1 antibodies to cyno FolR1 was addressed on HEK cells transiently transfected with cyFolR1 by flow cytometry.
(§1) New FolR1 hinders were generated via Phage Display using either a Fab library or a common light chain library using the CD3 light chain. The identified binders were converted into a human IgG1 format and binding to FolR1 high expressing HeLa cells was addressed. As reference molecule the human FolR1 binder Mov19 was included. […] In a next step the selected clones were tested for specificity to human FolR1 by excluding binding to the closely related human FolR2. HEK cells were transiently transfected with either human FolR1 or human FolR2 to address specificity. […] Therefore these clones were excluded from further characterization. In parallel cross-reactivity of the FolR1 clones to cyno FolR1 was addressed by performing binding studies to HEK cells transiently transfected with cyno FolR1. […] Subsequently three human FolR1 specific cyno cross-reactive binders were converted into TCB format and tested for induction of T cell killing and T cell activation. […] As reference molecule Mov19 FolR1 TCB was included in all studies. These FoLR1 TCBs were then used to compare induction of internalization after binding to FolR1 on HeLa cells.

[2] = system: huFolR1-Fc; assay: SPR epitope binning; format: binding, human
Method: 500 nM huFolR1-Fc was then captured for 60 s, followed by 500 nM of the different binders for 30 s. The surface was regenerated with two injections of 10 mM glycine pH 2 for 30 s each.

[3] = system: HEK cells transiently transfected with human FolR1 or human FolR2; assay: Flow cytometry specificity on transfected HEK cells; format: binding; details: IgG
Method: FIGS. 3A-B depict graphs summarizing specificity of FolR1 binders for FolR1. Binding of FolR1 IgGs to HEK cells transiently transfected with either FolR1 or FolR2 was analyzed by flow cytometry to identify clones which bind specifically to FolR1 and not to FolR2.
as §1

[4] = system: cynomolgus FolR1; details: IgG injected for 60 seconds at 500 nM
Method: (§2) Binding of FolR1 binders as IgG or in the T-cell bispecific format to different recombinant folate receptors (human FolR1, 2 and 3, murine FolR1 and cynomolgus FolR1; all as Fc fusions) was assessed by surface plasmon resonance (SPR). All SPR experiments were performed on a Biacore T200 at 25° C. with HBS-EP as running buffer (0.01 M HEPES pH 7.4, 0.15 M NaCl, 3 mM EDTA, 0.005% Surfactant P20, Biacore, Freiburg/Germany).
(§3) First the anti-FolR1 IgGs were analyzed by single injections (Table 1) to characterize their crossreactivity (to human, murine and cyno FolR1) and specificity (to human FolR1, human FolR2, human FolR3). Recombinant biotinylated monomeric Fc fusions of human, cynomolgus and murine Folate Receptor 1 (FolR1-Fc) or human Folate Receptor 2 and 3 (FolR2-Fc, FolR3-Fc) were directly coupled on a SA chip using the standard coupling instruction (Biacore, Freiburg/Germany). The immobilization level was about 300-400 RU. The IgGs were injected for 60 seconds at a concentration of 500 nM.

[5] = target: T1, human FolR2 (Homo sapiens, UniProt P14207); details: IgG injected for 60 seconds at 500 nM
Method: as §2, §3

[6] = target: T2, human FolR3 (Homo sapiens, UniProt P41439); details: IgG injected for 60 seconds at 500 nM
Method: as §2, §3

[7] = target: T3, human FolR1 (Homo sapiens, UniProt P15328); details: IgG injected for 60 seconds at 500 nM
Method: as §2, §3

[8] = target: murine FolR1 (Mus musculus, UniProt P35846); details: IgG injected for 60 seconds at 500 nM
Method: as §2, §3

[9] = target: T1, human FolR2; assay: SPR affinity of selected Fab clones (ProteOn XPR36); format: binding; design: the extracellular domain of the antigen linked to the hinge region of Fc-knob; made in house; host or cells: HEK293 EBNA; details: Fab-format, generic multi-framework sub-libraries, 25° C.
[10] = target: T4, human Folate Receptor 1 (FolR1-Fc) (Homo sapiens, UniProt P15328); assay: SPR avidity to Folate Receptor 1 (bivalent binding)
T4 construct: the extracellular domain of the antigen linked to the hinge region of Fc-knob; made in house; host or cells: HEK293 EBNA
Description: The immobilization level was about 300-400 RU. […] The dissociation was monitored for 600 seconds.

[11] = system: cynomolgus Folate Receptor 1 (FolR1-Fc); details: bivalent binding (avidity), ligand cyFolR1
Method: as §2
(§4) The avidity of the interaction between the anti-FolR1 IgGs or T cell bispecifics and the recombinant folate receptors was determined as described below (Table 9). Recombinant biotinylated monomeric Fc fusions of human, cynomolgus and murine Folate Receptor 1 (FolR1-Fc) were directly coupled on a SA chip using the standard coupling instruction (Biacore, Freiburg/Germany). The immobilization level was about 300-400 RU. The anti-FolR1 IgGs or T cell bispecifics were passed at a concentration range from 2.1 to 500 nM with a flow of 30 μL/minutes through the flow cells over 180 seconds. The dissociation was monitored for 600 seconds. […] The binding curves resulting from the bivalent binding of the IgGs or T cell bispecifics were approximated to a 1:1 Langmuir binding and fitted with that model (which is not correct, but gives an idea of the avidity). The apparent avidity constants for the interactions were derived from the rate constants of the fitting using the Bia Evaluation software (GE Healthcare).

[12] = target: murine Folate Receptor 1 (FolR1-Fc) (Mus musculus, UniProt P35846); details: bivalent binding (avidity), ligand muFolR1; 19H3 IgG with folate 2.3 μM in running buffer
Method: as §2, §4

[13] = target: T2, human FolR3; assay: SPR affinity of selected Fab clones (ProteOn XPR36); format: binding; design: the extracellular domain of the antigen linked to the hinge region of Fc-knob; made in house; host or cells: HEK293 EBNA; details: Fab-format, generic multi-framework sub-libraries, 25° C.
[14] = target: cynomolgus FolR1; details: read-out: KD cyFolR1; Fab-format, generic multi-framework sub-libraries, 25° C.
Method: (§5) Immobilization of antigens (ligand): Recombinant antigens were diluted with PBST (10 mM phosphate, 150 mM sodium chloride pH 7.4, 0.005% Tween 20) to […] injected at 30 μl/minute in vertical orientation. Injection of analytes: For ‘one-shot kinetics’ measurements, injection direction was changed to horizontal orientation, two-fold dilution series of purified Fab (varying concentration ranges) were injected simultaneously along separate channels 1-5, with association times of 200 s, and dissociation times of 600 s. Buffer (PBST) was injected along the sixth channel to provide an “in-line” blank for referencing. Association rate constants (kon) and dissociation rate constants (koff) were calculated using a simple one-to-one Langmuir binding model in ProteOn Manager v3.1 software by simultaneously fitting the association and dissociation sensorgrams. The equilibrium dissociation constant (KD) was calculated as the ratio koff/kon.
(§6) Immobilization of antigens (ligand): Recombinant antigens were diluted with PBST (10 mM phosphate, 150 mM sodium chloride pH 7.4, 0.005% Tween 20) to 10 μg/ml, then injected at 30 μl/minute in vertical orientation. Injection of analytes: For ‘one-shot kinetics’ measurements, injection direction was changed to horizontal orientation, two-fold dilution series of purified Fab (varying concentration ranges) were injected simultaneously along separate channels 1-5, with association times of 150 or 200 s, and dissociation times of 200 or 600 s, respectively. Buffer (PBST) was injected along the sixth channel to provide an “in-line” blank for referencing. Association rate constants (kon) and dissociation rate constants (koff) were calculated using a simple one-to-one Langmuir binding model in ProteOn Manager v3.1 software by simultaneously fitting the association and dissociation sensorgrams. The equilibrium dissociation constant (KD) was calculated as the ratio koff/kon.

[15] = target: murine FolR1 (Mus musculus, UniProt P35846, C103A); details: Fab-format, generic multi-framework sub-libraries, 25° C.
Method: as §5, §6

[16] = target: T3, human FolR1; details: read-out: KD huFolR1; Fab-format, generic multi-framework sub-libraries, 25° C.
Method: as §5, §6

[17] = bivalent binding (avidity), ligand huFolR1

Molecule | Binding to cyFolR1 [4] | Binding to huFolR2 [5] | Binding to huFolR3 [6] | Binding to huFolR1 [7] | Binding to muFolR1 [8] | KD huFolR2 [9] | KD huFolR3 [13] | Kd [14] [nM] | KD muFolR1 [15] | Kd [16] [nM] | further results
36F2: anti-FolR1 clone, generic multi-framework library (Vk_3_20/VH_1_46); Fab and IgG (antibody, V domains shown) VH: QVQLVQSGAEVKKPGASVKVSCKASGYTFTSYYMHWVRQAPGQGLEWMGIINPSGGSTSYAQKFQGRVTMTHDTSTSTVYMELSSLRSEDTAVYYCARSFFTGFHLDYWGQGTLVTVSS VL: EIVLTQSPGTLSLSPGERATLSCRASQSVSSSYLAWYQQKPGQAPRLLIYGASSRATGIPDRFSGSGSGTDFTLTISRLEPEDFAVYYCQQYTNEHYYTFGQGTKVEIK | + | − | − | + | + | no binding | no binding |  |  |  | binding to cyno FolR1 on transfected HEK cells [1]: bind comparably well human and cyno FoLR1; epitope characterization on human FolR1 (in words) [2]: binds to a different epitope than Mov19 and Farletuzumab; epitope characterization on human FolR1 (in words) ([2]; listed as 36F2 IgG): Measure not possible, huFolR1 dissociates too rapidly; specificity for human FolR1 versus human FolR2 on transfected HEK cells [3]: specifically to human FolR1 and not to human FolR2; dissociation from huFolR1 (in words) [10]: dissociated rapidly from huFolR1; ka [10, 17]: 2.62e+06 M⁻¹ s⁻¹; kd [10, 17]: 0.0151 s⁻¹; ka [11]: 3.02e+06 M⁻¹ s⁻¹; kd [11]: 0.016 s⁻¹; ka [12]: 370000 M⁻¹ s⁻¹; kd [12]: 0.000603 s⁻¹
5D9: anti-FolR1 clone, generic multi-framework library (Vk3_20/VH1_46); Fab and IgG (antibody, V domains shown) VH: QVQLVQSGAEVKKPGASVKVSCKASGYTFTSYYMHWVRQAPGQGLEWMGIINPSGGSTSYAQKFQGRVTMTRDTSTSTVYMELSSLRSEDTAVYYCARSYIDMDYWGQGTLVTVSS VL: EIVLTQSPGTLSLSPGERATLSCRASQSVSSSYLAWYQQKPGQAPRLLIYGASSRATGIPDRFSGSGSGTDFTLTISRLEPEDFAVYYCQQDNWSPTFGQGTKVEIK | + | + | + | + | − | no binding | no binding | 5.9 | no binding | 8.6 | 
6B6: anti-FolR1 clone, generic multi-framework library (Vk3_20/VH1_46); Fab and IgG (antibody, V domains shown) VH: QVQLVQSGAEVKKPGASVKVSCKASGYTFTSYYMHWVRQAPGQGLEWMGIINPSGGSTSYAQKFQGRVTMTRDTSTSTVYMELSSLRSEDTAVYYCARSYVDMDYWGQGTLVTVSS VL: EIVLTQSPGTLSLSPGERATLSCRASQSVSSSYLAWYQQKPGQAPRLLIYGASSRATGIPDRFSGSGSGTDFTLTISRLEPEDFAVYYCQQDIWSPTFGQGTKVEIK | + | + | + | + | − | no binding | no binding | 9.4 | no binding | 14.5 | 
11F8: anti-FolR1 clone, generic multi-framework library (Vk_1_5/VH_1_69); Fab and IgG (antibody, V domains shown) VH: QVQLVQSGAEVKKPGSSVKVSCKASGGTFSSYAISWVRQAPGQGLEWMGGIIPIFGTANYAQKFQGRVTITADKSTSTAYMELSSLRSEDTAVYYCARAVFYRAWYSFDYWGQGTTVTVSS VL: DIQMTQSPSTLSASVGDRVTITCRASQSISSWLAWYQQKPGKAPKLLIYDASSLESGVPSRFSGSGSGTEFTLTISSLQPDDFATYYCQQYTSPPPTFGQGTKVEIK | + | + | + | + | + | no binding | no binding | 794 |  | 632 | 
